± gives the uncertainty stated by the source.
Assay: self-splicing fitness, log relative to wild type (ln ratio); higher = more splicing; Tetrahymena group I intron in knt gene, E. coli kanamycin selection, DiMSum; sequences stand for … in CUCUCU…GGAGGGAAAAGUUAUCAGGCAUGCACCUGGUAGCUAGUCUUUAAACCAAUAGAUUGCAUCGGUUUAAAAGGCAAGACCGUCAAAUUGCGGGAAAGGGGUCAACAGCCGUUCAGUACCAAGUCUCAGGGGAAACUUUGAGAUGGCCUUGCAAAGGGUAUGGUAAUAAGCUGACGGACAUGGUCCUAACCACGCAGCCAAGUCCUAAGUCAACAGAUCUUCUGUUGAUAUGGAUGCAGUUCACAGACUAAAUGUCGGUCGGGGAAGAUGUAUUCUUCUCAUAAGAUAUAGUCGGACCUCUCCUUAAUGGGAGCUAGCGGAUGAAGUGAUGCAACACUGGAGCCGCUGGGAACUAAUUUGUAUGCGAAAGUAUAUUGAUUAGUUUUGGAGUACUCGUGGUCG
Summary of the method: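 A randomised library covering all eight P1ex-region intron nucleotides was built with the intron in the knt kanamycin-resistance gene on pET-22b(+) and held in E. coli BL21(DE3). Cells were grown overnight at 37°C or 30°C on LB agar, with or without 25 μg/mL kanamycin, plus 100 μg/mL carbenicillin, 50 μM IPTG and 0.2% rhamnose, and pooled colonies were amplicon-sequenced on an Illumina HiSeq 2500. DiMSum fitness is the error-weighted combination of wild-type-normalised replicate fold changes, kanamycin versus none.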

| Sequence | self-splicing fitness (ln) (30 °C) | self-splicing fitness (ln) (37 °C) |
| --- | --- | --- |
| UUACAGCAAUAUUACGGUGU | -4.36 ± 0.46 | -2.23 ± 0.21 |
| UCAGAGCAAUAUUACGGAUA | -2.81 ± 0.3 |  |
| CCUUAGCAAUAUUACGAAAG | -1.96 ± 0.11 | -1.45 ± 0.089 |
| UUGUAGCAAUAUUACGCCCG | -0.143 ± 0.22 | -0.0661 ± 0.23 |
| GACCAGCAAUAUUACGCUAC |  | -2.47 ± 0.3 |
| AGCGAGCAAUAUUACGGGAG | -2.82 ± 0.2 | -2 ± 0.29 |
| AAACAGCAAUAUUACGCCUC | -2.55 ± 0.15 | -1.49 ± 0.15 |
| CGGGAGCAAUAUUACGGUGC | -3.21 ± 0.49 |  |
| AAGUAGCAAUAUUACGGUGA | -1.03 ± 0.11 | -0.771 ± 0.14 |
| AAAGAGCAAUAUUACGGGAU | -4.18 ± 0.23 | -2.09 ± 0.17 |
| GGCCAGCAAUAUUACGAUUC | -0.666 ± 0.067 | -0.139 ± 0.099 |
| CUUCAGCAAUAUUACGGCUU | -3.25 ± 0.16 | -3.2 ± 0.26 |
| CGUCAGCAAUAUUACGGUAA | -1.1 ± 0.26 | -1.3 ± 0.23 |
| GCACAGCAAUAUUACGAAGA | -1.41 ± 0.14 | -1.4 ± 0.18 |
| CUCCAGCAAUAUUACGUCAU | -2.15 ± 0.13 | -2.84 ± 0.24 |
| GCAGAGCAAUAUUACGUCGU | -2.88 ± 0.18 | -0.722 ± 0.16 |
| CCUGAGCAAUAUUACGACGC | -3.08 ± 0.47 | -0.889 ± 0.22 |
| AAUAAGCAAUAUUACGAGGU | -4.58 ± 0.27 | -2.11 ± 0.18 |
| CGAAAGCAAUAUUACGUGGA | -3.24 ± 0.13 | -1.66 ± 0.096 |
| CGACAGCAAUAUUACGGCAU | -3.08 ± 0.21 | -2.16 ± 0.25 |

| Sequence | self-splicing fitness (ln) (30 °C) | self-splicing fitness (ln) (37 °C) |
| --- | --- | --- |
| UUAUAGCAAUAUUACGCGCC | -1.96 ± 0.23 | -2.14 ± 0.3 |
| CGCUAGCAAUAUUACGUCUC | -2.62 ± 0.48 | -1.46 ± 0.23 |
| AUUCAGCAAUAUUACGUAAU | -0.328 ± 0.079 | 0.348 ± 0.11 |
| CUCAAGCAAUAUUACGUUAA | -4.15 ± 0.3 | -2.76 ± 0.19 |
| AGAAAGCAAUAUUACGCAAC | -1.96 ± 0.25 | -2.02 ± 0.39 |
| UUCUAGCAAUAUUACGGGUG | -0.114 ± 0.078 | 0.281 ± 0.11 |
| CAUUAGCAAUAUUACGGAGU | -3.87 ± 0.19 | -2.7 ± 0.2 |
| CCCUAGCAAUAUUACGAAUC | -3.92 ± 0.22 | -2.61 ± 0.18 |
| UUGCAGCAAUAUUACGACGC | -3.11 ± 0.46 |  |
| GAGCAGCAAUAUUACGACCG | -2.42 ± 0.12 | -1.27 ± 0.15 |
| AGAGAGCAAUAUUACGGUUU | -1.98 ± 0.19 | -2.58 ± 0.25 |
| CGCAAGCAAUAUUACGAGGU | -4.03 ± 0.23 | -1.82 ± 0.16 |
| AAUUAGCAAUAUUACGGUAG | -4.2 ± 0.39 | -1.66 ± 0.24 |
| UAGGAGCAAUAUUACGCCGG | -2.07 ± 0.22 | -1.57 ± 0.3 |
| GAGUAGCAAUAUUACGCGCG | -0.178 ± 0.21 | -1 ± 0.2 |
| GCGCAGCAAUAUUACGUGUC | -2.71 ± 0.19 | -2.83 ± 0.24 |
| ACACAGCAAUAUUACGACAG | -1.62 ± 0.054 | -0.914 ± 0.077 |
| GUUAAGCAAUAUUACGAGAG | -3.24 ± 0.2 | -2.26 ± 0.2 |
| CACAAGCAAUAUUACGGUGU | -3.86 ± 0.14 | -2.07 ± 0.14 |

Reference: the supplement of paper PMC7877785
